The test has as its target T1, soluble human CD3ε chain (human, UniProt P07766 23-126, limits assumed).
T1 construct: the text says soluble human CD3ε chain; also called human CD3 epsilon chain
The test is described as follows: SPR (Biacore). Background: Surface plasmon resonance follows binding to a sensor surface in real time, without labels.

T1 sequence (P07766 23-126 limits assumed): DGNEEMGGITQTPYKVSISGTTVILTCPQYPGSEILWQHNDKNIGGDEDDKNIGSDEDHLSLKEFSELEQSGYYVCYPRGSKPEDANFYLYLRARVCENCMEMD

B1: TR01H040-E22Hh/none-Hi-Kn010G3/L0216-k0 (antibody, human IgG1, kappa, L234A L235A, N297A)
heavy: QVQLVESGGGLVQPGRSLRLSCAASGFTFSNAWMHWVRQAPGKGLEWVAQIKDKSQNYATYYAESVKGRFTISRADSKNSIYLQMNSLKTEDTAVYYCRYVHYSASYGVDAWGQGTTVTVSSASTKGPSVFPLAPSSKSTSGGTAALGCLVKDYFPEPVTVSWNSGALTSGVHTFPAVLQSSGLYSLSSVVTVPSSSLGTQTYICNVNHKPSNTKVDKKVEPKSCDKTHTCPPCPAPEAAGGPSVFLFPPKPKDTLMISRTPEVTCVVVDVSHEDPEVKFNWYVDGVEVHNAKTKPREEQYASTYRVVSVLTVLHQDWLNGKEYKCKVSNKALPAPIEKTISKAKGQPREPQVYTLPPSRCELTKNQVSLSCAVKGFYPSDIAVEWESNGQPENNYKTTPPVLDSDGSFFLVSKLTVDKSRWQQGNVFSCSVMHEALHNHYTQKSLSLSPDYKDDDDK
chain: EPKSSDKTHTCPPCPAPELLGGPSVFLFPPKPKDTLMISRTPEVTCVVVDVSHEDPEVKFNWYVDGVEVHNAKTKPREEQYNSTYRVVSVLTVLHQDWLNGKEYKCKVSNKALPAPIEKTISKAKGQPREPQVCTLPPSRDELTKNQVSLWCLVKGFYPSDIAVEWESNGQPENNYKTTPPVLDSDGSFFLYSKLTVDKSRWQQGNVFSCSVMHEALHNRYTQKSLSLSP
light: DIVMTQSPLSLPVTPGEPASISCRSSQPLVHSNRNTYLHWYQQKPGQAPRLLIYKVSNRFRGVPDRFSGSGSGTDFTLKISRVEAEDVGVYYCGQGTQVPYTFGQGTKLEIKRTVAAPSVFIFPPSDEQLKSGTASVVCLLNNFYPREAKVQWKVDNALQSGNSQESVTEQDSKDSTYSLSSTLTLSKADYEKHKVYACEVTHQGLSSPVTKSFNRGEC
notes: single-arm
The Kd is the free concentration of one partner at which half of the binding sites on the other are occupied at equilibrium, for simple one-to-one binding. Low readings indicate tighter binding, high ones weaker binding. B1 displayed a Kd of 25.3 nM.

B2: TR01H040-E22Hh/none-Hi-Kn010G3/L0217-k0 (antibody, human IgG1, kappa, L234A L235A, N297A)
heavy: QVQLVESGGGLVQPGRSLRLSCAASGFTFSNAWMHWVRQAPGKGLEWVAQIKDKSQNYATYYAESVKGRFTISRADSKNSIYLQMNSLKTEDTAVYYCRYVHYSASYGVDAWGQGTTVTVSSASTKGPSVFPLAPSSKSTSGGTAALGCLVKDYFPEPVTVSWNSGALTSGVHTFPAVLQSSGLYSLSSVVTVPSSSLGTQTYICNVNHKPSNTKVDKKVEPKSCDKTHTCPPCPAPEAAGGPSVFLFPPKPKDTLMISRTPEVTCVVVDVSHEDPEVKFNWYVDGVEVHNAKTKPREEQYASTYRVVSVLTVLHQDWLNGKEYKCKVSNKALPAPIEKTISKAKGQPREPQVYTLPPSRCELTKNQVSLSCAVKGFYPSDIAVEWESNGQPENNYKTTPPVLDSDGSFFLVSKLTVDKSRWQQGNVFSCSVMHEALHNHYTQKSLSLSPDYKDDDDK
chain: EPKSSDKTHTCPPCPAPELLGGPSVFLFPPKPKDTLMISRTPEVTCVVVDVSHEDPEVKFNWYVDGVEVHNAKTKPREEQYNSTYRVVSVLTVLHQDWLNGKEYKCKVSNKALPAPIEKTISKAKGQPREPQVCTLPPSRDELTKNQVSLWCLVKGFYPSDIAVEWESNGQPENNYKTTPPVLDSDGSFFLYSKLTVDKSRWQQGNVFSCSVMHEALHNRYTQKSLSLSP
light: DIVMTQSPLSLPVTPGEPASISCRPSQSLVHSNRNTYLHWYQQKPGQAPRLLIYKVSNRFRGVPDRFSGSGSGTDFTLKISRVEAEDVGVYYCGQGTQVPYTFGQGTKLEIKRTVAAPSVFIFPPSDEQLKSGTASVVCLLNNFYPREAKVQWKVDNALQSGNSQESVTEQDSKDSTYSLSSTLTLSKADYEKHKVYACEVTHQGLSSPVTKSFNRGEC
notes: single-arm
In the case of B2, the dissociation constant (Kd) worked out at 20.7 nM.

B3: TR01H040-E22Hh/none-Hi-Kn010G3/L0219-k0 (antibody, human IgG1, kappa, L234A L235A, N297A)
heavy: QVQLVESGGGLVQPGRSLRLSCAASGFTFSNAWMHWVRQAPGKGLEWVAQIKDKSQNYATYYAESVKGRFTISRADSKNSIYLQMNSLKTEDTAVYYCRYVHYSASYGVDAWGQGTTVTVSSASTKGPSVFPLAPSSKSTSGGTAALGCLVKDYFPEPVTVSWNSGALTSGVHTFPAVLQSSGLYSLSSVVTVPSSSLGTQTYICNVNHKPSNTKVDKKVEPKSCDKTHTCPPCPAPEAAGGPSVFLFPPKPKDTLMISRTPEVTCVVVDVSHEDPEVKFNWYVDGVEVHNAKTKPREEQYASTYRVVSVLTVLHQDWLNGKEYKCKVSNKALPAPIEKTISKAKGQPREPQVYTLPPSRCELTKNQVSLSCAVKGFYPSDIAVEWESNGQPENNYKTTPPVLDSDGSFFLVSKLTVDKSRWQQGNVFSCSVMHEALHNHYTQKSLSLSPDYKDDDDK
chain: EPKSSDKTHTCPPCPAPELLGGPSVFLFPPKPKDTLMISRTPEVTCVVVDVSHEDPEVKFNWYVDGVEVHNAKTKPREEQYNSTYRVVSVLTVLHQDWLNGKEYKCKVSNKALPAPIEKTISKAKGQPREPQVCTLPPSRDELTKNQVSLWCLVKGFYPSDIAVEWESNGQPENNYKTTPPVLDSDGSFFLYSKLTVDKSRWQQGNVFSCSVMHEALHNRYTQKSLSLSP
light: DIVMTQSPLSLPVTPGEPASISCRSSQSLVHSNRNTYIHWYQQKPGQAPRLLIYKVSNRFRGVPDRFSGSGSGTDFTLKISRVEAEDVGVYYCGQGTQVPYTFGQGTKLEIKRTVAAPSVFIFPPSDEQLKSGTASVVCLLNNFYPREAKVQWKVDNALQSGNSQESVTEQDSKDSTYSLSSTLTLSKADYEKHKVYACEVTHQGLSSPVTKSFNRGEC
notes: single-arm
The molecule B3 gave a Kd of 39.4 nM.

B4: TR01H040-E22Hh/none-Hi-Kn010G3/L0222-k0 (antibody, human IgG1, kappa, L234A L235A, N297A)
heavy: QVQLVESGGGLVQPGRSLRLSCAASGFTFSNAWMHWVRQAPGKGLEWVAQIKDKSQNYATYYAESVKGRFTISRADSKNSIYLQMNSLKTEDTAVYYCRYVHYSASYGVDAWGQGTTVTVSSASTKGPSVFPLAPSSKSTSGGTAALGCLVKDYFPEPVTVSWNSGALTSGVHTFPAVLQSSGLYSLSSVVTVPSSSLGTQTYICNVNHKPSNTKVDKKVEPKSCDKTHTCPPCPAPEAAGGPSVFLFPPKPKDTLMISRTPEVTCVVVDVSHEDPEVKFNWYVDGVEVHNAKTKPREEQYASTYRVVSVLTVLHQDWLNGKEYKCKVSNKALPAPIEKTISKAKGQPREPQVYTLPPSRCELTKNQVSLSCAVKGFYPSDIAVEWESNGQPENNYKTTPPVLDSDGSFFLVSKLTVDKSRWQQGNVFSCSVMHEALHNHYTQKSLSLSPDYKDDDDK
chain: EPKSSDKTHTCPPCPAPELLGGPSVFLFPPKPKDTLMISRTPEVTCVVVDVSHEDPEVKFNWYVDGVEVHNAKTKPREEQYNSTYRVVSVLTVLHQDWLNGKEYKCKVSNKALPAPIEKTISKAKGQPREPQVCTLPPSRDELTKNQVSLWCLVKGFYPSDIAVEWESNGQPENNYKTTPPVLDSDGSFFLYSKLTVDKSRWQQGNVFSCSVMHEALHNRYTQKSLSLSP
light: DIVMTQSPLSLPVTPGEPASISCRSSQSPVHSNRNTYIQWYQQKPGQAPRLLIYKVSNRFSGVPDRFSGSGSGTDFTLKISRVEAEDVGVYYCYQGTQVPYTFGQGTKLEIKRTVAAPSVFIFPPSDEQLKSGTASVVCLLNNFYPREAKVQWKVDNALQSGNSQESVTEQDSKDSTYSLSSTLTLSKADYEKHKVYACEVTHQGLSSPVTKSFNRGEC
notes: single-arm
Consider B4, for which the Kd is 46.5 nM.

B5: TR01H040-E22Hh/none-Hi-Kn010G3/L0218-k0 (antibody, human IgG1, kappa, L234A L235A, N297A)
heavy: QVQLVESGGGLVQPGRSLRLSCAASGFTFSNAWMHWVRQAPGKGLEWVAQIKDKSQNYATYYAESVKGRFTISRADSKNSIYLQMNSLKTEDTAVYYCRYVHYSASYGVDAWGQGTTVTVSSASTKGPSVFPLAPSSKSTSGGTAALGCLVKDYFPEPVTVSWNSGALTSGVHTFPAVLQSSGLYSLSSVVTVPSSSLGTQTYICNVNHKPSNTKVDKKVEPKSCDKTHTCPPCPAPEAAGGPSVFLFPPKPKDTLMISRTPEVTCVVVDVSHEDPEVKFNWYVDGVEVHNAKTKPREEQYASTYRVVSVLTVLHQDWLNGKEYKCKVSNKALPAPIEKTISKAKGQPREPQVYTLPPSRCELTKNQVSLSCAVKGFYPSDIAVEWESNGQPENNYKTTPPVLDSDGSFFLVSKLTVDKSRWQQGNVFSCSVMHEALHNHYTQKSLSLSPDYKDDDDK
chain: EPKSSDKTHTCPPCPAPELLGGPSVFLFPPKPKDTLMISRTPEVTCVVVDVSHEDPEVKFNWYVDGVEVHNAKTKPREEQYNSTYRVVSVLTVLHQDWLNGKEYKCKVSNKALPAPIEKTISKAKGQPREPQVCTLPPSRDELTKNQVSLWCLVKGFYPSDIAVEWESNGQPENNYKTTPPVLDSDGSFFLYSKLTVDKSRWQQGNVFSCSVMHEALHNRYTQKSLSLSP
light: DIVMTQSPLSLPVTPGEPASISCRSSQSLVHSNRNTYLHWYQQKPGQAPRLLIYKVSNRFRGVPDRFSGSGSGTDFTLKISRVEAEDVGVYYCYQGTQVPYTFGQGTKLEIKRTVAAPSVFIFPPSDEQLKSGTASVVCLLNNFYPREAKVQWKVDNALQSGNSQESVTEQDSKDSTYSLSSTLTLSKADYEKHKVYACEVTHQGLSSPVTKSFNRGEC
notes: single-arm
B5 gave a Kd of 8.2 nM.

B6: TR01H040-E22Hh/none-Hi-Kn010G3/L0220-k0 (antibody, human IgG1, kappa, L234A L235A, N297A)
heavy: QVQLVESGGGLVQPGRSLRLSCAASGFTFSNAWMHWVRQAPGKGLEWVAQIKDKSQNYATYYAESVKGRFTISRADSKNSIYLQMNSLKTEDTAVYYCRYVHYSASYGVDAWGQGTTVTVSSASTKGPSVFPLAPSSKSTSGGTAALGCLVKDYFPEPVTVSWNSGALTSGVHTFPAVLQSSGLYSLSSVVTVPSSSLGTQTYICNVNHKPSNTKVDKKVEPKSCDKTHTCPPCPAPEAAGGPSVFLFPPKPKDTLMISRTPEVTCVVVDVSHEDPEVKFNWYVDGVEVHNAKTKPREEQYASTYRVVSVLTVLHQDWLNGKEYKCKVSNKALPAPIEKTISKAKGQPREPQVYTLPPSRCELTKNQVSLSCAVKGFYPSDIAVEWESNGQPENNYKTTPPVLDSDGSFFLVSKLTVDKSRWQQGNVFSCSVMHEALHNHYTQKSLSLSPDYKDDDDK
chain: EPKSSDKTHTCPPCPAPELLGGPSVFLFPPKPKDTLMISRTPEVTCVVVDVSHEDPEVKFNWYVDGVEVHNAKTKPREEQYNSTYRVVSVLTVLHQDWLNGKEYKCKVSNKALPAPIEKTISKAKGQPREPQVCTLPPSRDELTKNQVSLWCLVKGFYPSDIAVEWESNGQPENNYKTTPPVLDSDGSFFLYSKLTVDKSRWQQGNVFSCSVMHEALHNRYTQKSLSLSP
light: DIVMTQSPLSLPVTPGEPASISCRSSQPLVHSNRNTYLHWYQQKPGQAPRLLIYKVSNRFRGVPDRFSGSGSGTDFTLKISRVEAEDVGVYYCYQGTQVPYTFGQGTKLEIKRTVAAPSVFIFPPSDEQLKSGTASVVCLLNNFYPREAKVQWKVDNALQSGNSQESVTEQDSKDSTYSLSSTLTLSKADYEKHKVYACEVTHQGLSSPVTKSFNRGEC
notes: single-arm
In turn, B6 showed a Kd of 9.15 nM.

For the origin of these results see US20210388110A1 (published 2021).
